Reference: patent publication US20220169722A1 (WUXI BIOLOGICS IRELAND, published 2022)
Substitutions are numbered along the chain they refer to. Read-outs that look alike come from different tables or passages of the source. Values belong to the binder of their own block, whether it stands above or below them.

Key:
mFc-tagged mouse LAG-3 = target: T1, mFc-tagged mouse LAG-3 (mouse, UniProt Q61790 24-442); test: FACS competition; blocks mFc-mouse LAG-3 binding to MHC-II on A20 cells
T1 construct: extracellular domain; also called mFc-tagged mouse protein
T1 sequence (looked up): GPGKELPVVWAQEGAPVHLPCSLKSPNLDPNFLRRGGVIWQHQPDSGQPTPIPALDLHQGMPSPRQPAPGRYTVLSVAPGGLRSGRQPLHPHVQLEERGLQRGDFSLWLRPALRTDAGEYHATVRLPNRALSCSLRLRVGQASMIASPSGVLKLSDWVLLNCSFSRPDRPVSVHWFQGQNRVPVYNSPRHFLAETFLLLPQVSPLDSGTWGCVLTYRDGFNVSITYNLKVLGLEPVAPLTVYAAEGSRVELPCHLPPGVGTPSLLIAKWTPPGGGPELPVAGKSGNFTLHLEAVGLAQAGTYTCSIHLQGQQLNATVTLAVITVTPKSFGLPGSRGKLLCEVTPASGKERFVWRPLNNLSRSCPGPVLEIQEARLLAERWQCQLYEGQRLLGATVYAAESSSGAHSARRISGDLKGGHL

[1] = target: T2, mouse Fc (mFc)-tagged human LAG-3 (human, UniProt P18627 23-450); test: ELISA blocking: antibody pre-mixed with mFc-tagged human LAG-3, added to plates coated with human Galectin-3 (blocked ligand); detection goat anti-mouse IgG Fc-HRP
T2 construct: extracellular domain
T2 sequence (looked up): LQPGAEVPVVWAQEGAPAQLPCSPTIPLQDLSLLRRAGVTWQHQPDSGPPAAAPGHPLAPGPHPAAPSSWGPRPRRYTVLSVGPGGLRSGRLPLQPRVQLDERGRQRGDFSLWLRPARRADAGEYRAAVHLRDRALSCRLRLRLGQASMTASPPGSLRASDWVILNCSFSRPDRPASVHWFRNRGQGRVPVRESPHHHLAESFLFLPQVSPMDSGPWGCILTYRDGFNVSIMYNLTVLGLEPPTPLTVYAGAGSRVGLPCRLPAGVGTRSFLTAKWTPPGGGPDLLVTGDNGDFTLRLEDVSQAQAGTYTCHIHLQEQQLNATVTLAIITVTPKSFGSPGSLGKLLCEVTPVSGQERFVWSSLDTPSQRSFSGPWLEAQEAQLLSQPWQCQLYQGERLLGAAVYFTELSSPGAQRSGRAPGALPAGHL
Procedure: (§1) 96-well plates were coated with human LSECtin or Galectin-3 at 0.5 μg/ml overnight at 4° C., respectively. […] After blocking and washing, the mixture was transferred to the plates and incubated at room temperature for 1 h. The plates were then washed and subsequently incubated with the secondary antibody goat-anti Mouse IgG Fc-HRP for 1 h. After washing, TMB substrate was added and the color reaction was stopped by 2M HCl. The absorbance at 450 nm was read using a microplate reader.

[2] = target: T3, cynomolgus LAG-3 on transfected cells (cynomolgus monkey); test: FACS, serial dilutions on cynomolgus LAG-3 transfected cells, PE-labeled secondary antibody
T3 construct: whole, on cells; 293F cells transfected with cynomolgus LAG-3; also called cell surface cynomolgus LAG-3; monkey LAG-3
Procedure: (§2) Similarly, cross-reactivity to cynomolgus or murine LAG-3 was tested by FACS with cyno or murine LAG-3 transfected cell lines.

[3] = target: T4, human LAG-3 protein (SPR analyte) (human, UniProt P18627 23-450); test: SPR Biacore 8K, Ab captured on anti-human Fc, LAG-3 as analyte
T4 construct: extracellular domain
T4 sequence (looked up): T2 sequence (looked up)

[4] = target: T5, mouse LAG-3 protein (SPR analyte) (mouse, UniProt Q61790 24-442); test: as above
T5 construct: extracellular domain
T5 sequence (looked up): T1 sequence (looked up)

[5] = target: T2, mouse Fc (mFc)-tagged human LAG-3; test: FACS blocking: antibody pre-mixed with mFc-tagged human LAG-3, added to Raji cells; blocked ligand: human MHC-II on Raji cells; detection goat anti-mouse IgG Fc-PE
Procedure: (§3) The mixture was transferred into the 96-well plates seeded with Raji cells. Goat anti-mouse IgG Fc-PE antibody was used to detect the binding of LAG-3 protein to Raji cells. The mean fluorescence intensity (MFI) was evaluated by flow cytometry and analyzed by FlowJo.

[6] = target: T3, cynomolgus LAG-3 on transfected cells; test: FACS on cynomolgus LAG-3 transfected cells
Procedure: as §2

[7] = target: T6, human LAG-3 on transfected cells (human, UniProt P18627 23-525); test: FACS on human LAG-3 transfected cells with serum-treated antibody, PE-labeled goat anti-human IgG
T6 construct: whole, on cells; Flp-In-293 or CHO-K1 cells transfected with full length human LAG-3; also called cell surface human LAG-3
T6 sequence (looked up): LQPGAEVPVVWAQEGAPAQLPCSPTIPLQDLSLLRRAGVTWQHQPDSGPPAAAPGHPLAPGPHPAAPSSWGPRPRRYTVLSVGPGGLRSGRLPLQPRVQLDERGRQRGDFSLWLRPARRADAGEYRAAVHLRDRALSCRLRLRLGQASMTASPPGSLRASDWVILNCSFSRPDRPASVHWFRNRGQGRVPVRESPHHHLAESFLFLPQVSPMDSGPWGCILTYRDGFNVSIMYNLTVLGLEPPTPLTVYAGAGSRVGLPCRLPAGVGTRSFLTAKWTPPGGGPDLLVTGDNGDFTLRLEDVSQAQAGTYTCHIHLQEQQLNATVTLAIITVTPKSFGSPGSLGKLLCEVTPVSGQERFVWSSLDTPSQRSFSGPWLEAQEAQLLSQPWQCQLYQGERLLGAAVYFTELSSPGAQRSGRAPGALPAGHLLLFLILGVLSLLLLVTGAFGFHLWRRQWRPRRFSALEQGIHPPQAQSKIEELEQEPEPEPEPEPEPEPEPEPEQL
Procedure: On indicated time points (day 0, day 1, day 4, day 7 and day 14), an aliquot of serum treated sample were removed from the incubator and snap frozen in liquid N2, and then stored at −80° C. until ready for test. All the samples were quickly thawed prior to the stability test. […] MFI of the cells was measured by a flow cytometry and analyzed by FlowJo.

[8] = target: T2, mouse Fc (mFc)-tagged human LAG-3; test: FACS blocking: antibody pre-mixed with mFc-tagged human LAG-3; blocked ligand: cell surface human MHC-II (paragraph 254 says 'on A20 cells' for this figure); the column head on the sheet reads 'EC50 (nM)', the text calls the value IC50
Procedure: as §3

[9] = target: T3, cynomolgus LAG-3 on transfected cells; test: FACS affinity on transfected cells
[10] = target: T6, human LAG-3 on transfected cells; test: FACS affinity on transfected cells
[11] = target: T4, human LAG-3 protein (SPR analyte); test: SPR Biacore 8K, Ab as ligand, LAG-3 as analyte
[12] = target: T5, mouse LAG-3 protein (SPR analyte); test: SPR Biacore 8K, Ab as ligand, LAG-3 as analyte
[13] = target: T6, human LAG-3 on transfected cells; test: FACS, serial dilutions on human LAG-3 transfected cells, PE-labeled secondary antibody
[14] = target: T2, mouse Fc (mFc)-tagged human LAG-3; test: ELISA blocking: antibody pre-mixed with mFc-tagged human LAG-3, added to plates coated with human Galectin-3 (blocked ligand); detection goat anti-mouse IgG Fc-HRP; remark: listed apart in the source
Procedure: as §1

[15] = target: T2, mouse Fc (mFc)-tagged human LAG-3; test: ELISA blocking: antibody pre-mixed with mFc-tagged human LAG-3, added to plates coated with human LSECtin (blocked ligand); detection goat anti-mouse IgG Fc-HRP
Procedure: as §1

human CD4 = human CD4 (human, UniProt P01730 26-390, limits assumed); test: ELISA, plates coated with human CD4, goat anti-human IgG Fc-HRP
Procedure: Cross-reactivity to human CD4 was measured by ELISA. Plates were coated with human CD4 at 1 μg/ml overnight at 4° C. After blocking and washing, 1 μg/ml of LAG-3 antibodies were added to the plates and incubated at room temperature for 1 h. The plates were then washed and subsequently incubated with goat-anti human IgG Fc-HRP for 45 min. After washing, TMB substrate was added and the color reaction was stopped by 2M HCl. The absorbance at 450 nm was read using a microplate reader.

[16] = target: T7, mouse LAG-3 on transfected cells (mouse, UniProt Q61790 24-521); test: FACS on mouse LAG-3 transfected cells
T7 construct: whole, on cells; Flp-In-CHO cells transfected with mouse LAG-3; also called cell surface mouse LAG-3; murine LAG-3
T7 sequence (looked up): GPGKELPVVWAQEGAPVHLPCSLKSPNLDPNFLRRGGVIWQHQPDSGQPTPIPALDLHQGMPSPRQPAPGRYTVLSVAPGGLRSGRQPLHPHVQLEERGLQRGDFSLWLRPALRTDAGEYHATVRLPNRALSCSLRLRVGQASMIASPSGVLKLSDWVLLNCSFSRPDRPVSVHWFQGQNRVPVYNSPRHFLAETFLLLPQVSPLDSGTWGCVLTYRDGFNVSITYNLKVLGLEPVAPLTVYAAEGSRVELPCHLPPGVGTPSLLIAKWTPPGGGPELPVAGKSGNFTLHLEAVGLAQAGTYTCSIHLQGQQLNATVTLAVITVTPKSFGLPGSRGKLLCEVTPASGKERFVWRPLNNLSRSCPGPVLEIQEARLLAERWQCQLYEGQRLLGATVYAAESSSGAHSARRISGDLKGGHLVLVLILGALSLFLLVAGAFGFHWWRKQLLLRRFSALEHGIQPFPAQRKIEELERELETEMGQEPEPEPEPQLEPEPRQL
Procedure: as §2

[17] = target: T2, mouse Fc (mFc)-tagged human LAG-3; test: ELISA blocking: antibody pre-mixed with mFc-tagged human LAG-3, added to plates coated with human LSECtin (blocked ligand); detection goat anti-mouse IgG Fc-HRP; remark: listed apart in the source
Procedure: as §1

[18] = target: T7, mouse LAG-3 on transfected cells; test: FACS affinity on transfected cells
[19] = target: T3, cynomolgus LAG-3 on transfected cells; test: FACS affinity on transfected cells; remark: listed apart in the source
[20] = target: T6, human LAG-3 on transfected cells; test: FACS affinity on transfected cells; remark: listed apart in the source

IC50 (mFc-tagged mouse LAG-3): 2900 pM
IC50 [1]: 1860 pM
EC50 [2]: 2340 pM
Kd [3]: 162 pM
koff [3]: 2.7e-05 s⁻¹
kon [3]: 166000 M⁻¹ s⁻¹
Kd [4]: < 1.22 pM
koff [4]: < 1e-06 s⁻¹
kon [4]: 819000 M⁻¹ s⁻¹
IC50 [5]: 840 pM
EC50 [6]: 2340 pM
EC50 (read off the curve) [7]: ~100 pM
IC50 [8]: 1780 pM
Bmax [9]: 380 pM
Kd [9]: 6300 pM
Bmax [10]: 54 pM
Kd [10]: 460 pM
Kd [11]: 183 pM
koff [11]: 2.73e-05 s⁻¹
kon [11]: 149000 M⁻¹ s⁻¹
Kd [12]: 2.27 pM
koff [12]: 2.31e-06 s⁻¹
kon [12]: 1.02e+06 M⁻¹ s⁻¹
EC50 [13]: 364 pM
IC50 [14]: 926 pM
IC50 [15]: 1810 pM
binding result (human CD4): no binding (tested: 66.7 nM)
EC50 [16]: 100 pM
IC50 [17]: 642 pM
Bmax [18]: 57 pM
Kd [18]: 57 pM
Bmax [19]: 280 pM
Kd [19]: 3300 pM
Bmax [20]: 250 pM
Kd [20]: 810 pM
B1: W3396-R2-1 (Fc fusion)
VHH: QVQLVESGGGVVQPGGSLRLSCAASGLTLSQYTMGWFRQAPGKERELVAAIHWTSSVTDYADSVYGRFTISRDDSKNTGYLQMNSLRAEDTAVYYCAATWYYTHRGSFDYWGQGTLVTVSS

IC50 (mFc-tagged mouse LAG-3): 2400 pM
EC50 [2]: 2160 pM
Kd [3]: 4060 pM
koff [3]: 0.000197 s⁻¹
kon [3]: 48400 M⁻¹ s⁻¹
Kd [4]: < 0.952 pM
koff [4]: < 1e-06 s⁻¹
kon [4]: 1.05e+06 M⁻¹ s⁻¹
IC50 [5]: 460 pM
EC50 [6]: 2160 pM
EC50 (read off the curve) [7]: ~200 pM
IC50 [14]: 1300 pM
binding result (human CD4): no binding (tested: 66.7 nM)
IC50 [17]: 797 pM
Bmax [18]: 53 pM
Kd [18]: 54 pM
Bmax [19]: 310 pM
Kd [19]: 5000 pM
Bmax [20]: 200 pM
Kd [20]: 920 pM
B2: W3396-R2-13 (Fc fusion)
VHH: B1 VHH with Y65R

IC50 [1]: 1230 pM
Bmax [9]: 300 pM
Kd [10]: 460 pM
Kd [11]: 165 pM
Kd [12]: < 0.575 pM
EC50 [13]: 228 pM
IC50 [15]: 1610 pM
binding result (human CD4): no binding (tested: 33.4 nM)
EC50 [16]: 130 pM
B3: W3396-R2-2 (Fc fusion)
VHH: B1 VHH with W100H, S107P
